From article PMC9606073 (Immunity, 2022)

B1: C118 IgG (antibody, V domains shown)
VH: QVQLVESGGGVVQPGRSLRLSCAASGFTFSNYAMHWVRQAPGKGLEWVAVISYDGSNKYYADSVKGRFTISRDNSKNTLYLQMNSLRAEDTAIYYCASGYTGYDYFVRGDYYGLDVWGQGTTVTVSS
VL: QPVLTQSPSASASLGASVKLTCTLSSGHSSYAIAWHQQQPEKGPRYLMKLNTDGSHSKGDGIPDRFSGSSSGAERYLTISSLQSEDEADYYCQTWGTGILVFGGGTKLTVL
notes: copies: 2 + 2
B2: M8a-6 IgG (antibody, V domains shown)
VH: QVQLQQPGTELVMPGASVKLSCKTSGYTFTHYWMHWVKQRPGEGLEWIGEIAPSDNYVKYNQKFKGKSTLSVDRSSSTAYMQLSSLTSEDSAVYFCARPDNSGYPVYFDYWGQGTSLTVSS
VL: DIVMTQSQKFMSTSLGDRVSISCKASQDVGTTVAWYQQKPGQSPKLLIYWASTRHTGVPDRFTGTGSGTDYTLTISSVAAEDLALYYCQQHYNTPYTFGGGTKLEIE
notes: copies: 2 + 2
B3: M8a-3 IgG (antibody, V domains shown)
VH: QVQLQQPGAELVLPGASVKLSCKASGYTFTNYWMHWVKQRPGHGLEWIGEIDPFDTYIKINQKFKGKSTLTVDTSSSTAYMQLSSLTSEDSAVYYCARPDSSGYPVYFDYWGQGTTLTVSS
VL: DIVMTQSHKFMSTSVGDRVSITCKASQDVGTYIAWYQQKPGQSPKLLIYWASTRHTGVPDRFTGSGSGTNYTLTISSVQAEDLALYHCQQHYSTPYTFGGGTKLEIK
notes: copies: 2 + 2

Target: SARS-CoV-2 Omicron BA.4/BA.5 RBD (SARS-CoV-2 Omicron BA.4/BA.5, strain)
Experiment: SPR
Conditions: both partners purified

Binder | Kd [nM] | koff [s⁻¹] | kon [M⁻¹ s⁻¹]
B1 | 28 | 0.0039 | 140000
B2 | 290 |  | 
B3 | 2.2 | 0.00045 | 210000
